This note sets out measurements from US20250381225A1 (DEVELOPMENT CENTER FOR BIOTECHNOLOGY, published 2025).

For assay [1], the target named is T1, PD1-hFc (UniProt Q15116 25-167).
T1 construct: ELISA coat at 1 ug/ml; not shown: hFc (human Fc)
The assay can be described thus: ELISA on PD-1; protein purified from supernatant of 293T cells transfected with the CAR plasmid. The method, then: To evaluate the expression of the present CAR construct, the plasmid encoding the CAR molecule was transfected into 293T cells. The protein was harvested from the supernatant of the cultured cells, followed by purifying and quantifying via measuring OD260/280. On the other hand, the binding affinity of the purified protein towards PD-1 was determined by ELISA.

The target in assay [2] is T1, PD1-hFc. Nature of the assay: ELISA on coated PD1-hFc; scFv-Fc expressed in FreeStyle 293 cells.
Assay [3] has as its target T1, PD1-hFc. The assay can be described thus: ELISA on coated PD1-hFc, anti-human kappa HRP, one site-specific binding fit. The method, then:
ELISA plates were coated with PD1-hFc (1 ug/ml) and blocked with blocking buffer (5% milk dissolved in PBS). The antibodies from 66.67 nM to […] dilute (4× fold dilution) were then added to the plates. The binding affinity of tested antibody to PD1-hFc was determined via adding goat anti-human KAPPA HRP IgG (1:3,000 dilution), and binding curve and KD were determined by software using one site-specific binding for nonlinear fit methods.

In a further assay the target is T2, recombinant PD-1 protein (UniProt Q15116 25-167, limits assumed).
T2 construct: It may or may not be the same reagent as PD1-hFc
Nature of the assay: ELISA, recombinant PD-1 coated at 0.1 ug/well, serially diluted antibody. The method, then:
Antibodies of the invention were evaluated for specific binding to PD-1 using an enzyme-linked immunosorbent assay (ELISA). Briefly, recombinant PD-1 protein was immobilized on a 96-well ELISA plate at 0.1 μg/well. The chimeric anti-human PD-1 2B6 antibody was serially diluted and incubated with the coated PD-1, followed by detection with a horseradish peroxidase (HRP)-conjugated goat anti-mouse IgG secondary antibody. The binding was visualized using 3,3′,5,5′-tetramethylbenzidine (TMB) as a substrate, and the optical density (OD) was measured at 405 nm to assess the binding activity.

For assay [4], the target named is human PD-1 on PD-1 Effector Cells (Jurkat T cells) (human, UniProt Q15116 25-288). The assay can be described thus: cell-based or functional assay.
human PD-1 on PD-1 Effector Cells (Jurkat T cells), sequence (Q15116 25-288): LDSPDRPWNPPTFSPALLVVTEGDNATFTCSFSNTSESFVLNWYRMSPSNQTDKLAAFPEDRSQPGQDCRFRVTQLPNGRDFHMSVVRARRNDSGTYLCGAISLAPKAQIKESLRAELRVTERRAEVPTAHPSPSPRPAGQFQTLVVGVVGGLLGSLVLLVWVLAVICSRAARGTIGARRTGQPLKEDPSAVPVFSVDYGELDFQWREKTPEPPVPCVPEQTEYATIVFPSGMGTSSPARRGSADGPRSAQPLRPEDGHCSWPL

T1 sequence (Q15116 25-167): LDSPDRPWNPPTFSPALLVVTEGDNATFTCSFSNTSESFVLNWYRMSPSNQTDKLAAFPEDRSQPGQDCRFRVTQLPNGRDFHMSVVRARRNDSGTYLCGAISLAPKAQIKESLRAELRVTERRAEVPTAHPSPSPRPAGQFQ
T2 sequence (Q15116 25-167 limits assumed): as the sequence (Q15116 25-167) above

B1: recombinant humanized 2B6 HuB1-scFv-Fc (Fc fusion)
scFv: EVQLVESGGGLVQPGGSLRLSCAASGFTFSSYTMSWVRQAPGKGLEWVATISGGGANIYYPDSVKGRFTISRDNSKNTLYLQMNSLRAEDTAVYYCVSPYYAIDFWGQGTLVTVSSGGGGSGGGGSGGGGSDIQMTQSPSSLSASVGDRVTITCKASQDVGSAVAWYQQKPGKAPKLLIYWASTRHTGVPSRFSGSGSGTDFTLTISSLQPEDFATYYCQQYSTYTWTFGQGTKVEIK
notes: Both carry the same printed name and are kept as one molecule; also called 286 HuB1-scFv-Fc; PD-1^2B6 scFv-Fc; not shown: lim
As for B1, the values for the Kd in the assay with PD1-hFc [1] and with PD1-hFc [2] were 1.75 nM and 2.58 nM, respectively.

B2: humanized antibody 2B6 HdB1 Hd (antibody, V domains shown)
VH: EVQLVESGGGLVQPGGSLRLSCKASGFTFSSYTMSWVRQAPGKGLEWVATISGGGANIYYPDSVKGRFTISRDNSKNTLYLQMNSLRAEDTAVYYCVSPYYAIDFWGQGTLVTVSS
VL: DIQMTQSPSSLSASVGDRVTITCKASQDVGSAVAWYQQKPGKAPKLLIYWASTRHTGVPSRFSGSGSGTDFTLTISSLQPEDFATYYCQQYSTYTWTFGQGTKVEIK
notes: Heavy chain HdB1 with light chain Hd
B2: in the assay with PD1-hFc [3], the dissociation constant Kd was 0.368 nM.

B3: humanized 2B6 4D5 (2B6-HdHd) (antibody, V domains shown)
VH: EVQLVESGGGLVQPGGSLRLSCKASGFTFSSYTMSWVRQAPGKGLEWVATISGGGANIYYPDSVKGRFTISRDDSKNTLYLQMNSLRAEDTAVYYCARPYYAIDFWGQGTLVTVSS
VL: DIQMTQSPSSLSASVGDRVTITCKASQDVGSAVAWYQQKPGKAPKLLIYWASTRHTGVPSRFSGSGSGTDFTLTISSLQPEDFATYYCQQYSTYTWTFGQGTKVEIK
notes: Heavy chain Hd with light chain Hd
In turn, B3 yielded a Kd in the assay with PD1-hFc [3] of 179 nM.

B4: humanized antibody 2B6 HuB1 Hd (antibody, V domains shown)
VH: EVQLVESGGGLVQPGGSLRLSCAASGFTFSSYTMSWVRQAPGKGLEWVATISGGGANIYYPDSVKGRFTISRDNSKNTLYLQMNSLRAEDTAVYYCVSPYYAIDFWGQGTLVTVSS
VL: DIQMTQSPSSLSASVGDRVTITCKASQDVGSAVAWYQQKPGKAPKLLIYWASTRHTGVPSRFSGSGSGTDFTLTISSLQPEDFATYYCQQYSTYTWTFGQGTKVEIK
notes: Heavy chain HuB1 with light chain Hd
With B4, the dissociation constant Kd with PD1-hFc [3] came out at 0.403 nM.

B5: chimeric anti-human PD-1 2B6 antibody (antibody, V domains shown)
VH: EVKLVESGGGLVKPGGSLKLSCAAAGFTFSSYTMSWVRQTPAKRLEWVATISGGGANIYYPDSVKGRFTISRDNARNTLYLQMSSLRSEDTAMYYCVSPYYAIDFWGQGTSVTVSS
VL: DTVMTQSDKFMSTSVGDRVSITCKASQDVGSAVAWYQQKPGQSPKLLIYWASTRHTGVPDRFTGSGSGTDFTLTISNVQSEDLADYFCQQYSTYTWTFGGGTKLEIK
notes: also called mAb 2B6; M-M
Take B5: the dissociation constant (Kd) turned out to be 0.809 nM with recombinant PD-1 protein and 0.495 nM in the assay with PD1-hFc [3]. Besides, the “NFAT-RE-mediated luminescence (PD-1/PD-L1 Blockade Bioassay), EC50” value in assay [4] came to 3.88 nM.
